The target of the test is T1, SARS-CoV-2 Spike receptor binding domain, Wuhan (ancestral) variant (SARS-CoV-2, UniProt P0DTC2, biotinylated in vitro when needed).
T1 construct: also called Wuhan RBD; soluble (monomeric) RBD
Kind of test: flow cytometry on cells; cell-surface binding inhibition: 36 nM RBD preincubated with 1 to 1088 nM of the molecule for 1 h at 37°C in PBS, 1% BSA, 2 mM EDTA, then 1x10^5 HEK-293T-hACE2 cells for 1 h on ice; RBD on cells revealed with Strep-Tactin-Dye649; blocker and RBD meet in solution. Particulars: both partners purified. In general terms: In flow cytometry, cells or beads pass a laser one at a time.

B1: Binder C (VHH)
VHH: QVQLVESGGGLVQPGGSLRLSCAASGITLDYYAIGWFRQAPGKEREGVSRIRSSDGSTNYADSVKGRFTMSRDNAKNTVYLQMNSLKPEDTAVYYCAYGPLTKYGSSWYWPYEYDYWGQGTQVTVSS
notes: not shown: His6, N-terminal, cleaved; SUMO, N-terminal, cleaved
In the case of B1, the binding result is listed as “binds”.

The record behind these values is PMC10447908, “Customizably designed multibodies neutralize SARS-CoV-2 in a variant-insensitive manner” (Frontiers in Immunology, 2023).
